Numbering of substitutions follows the chain as printed.
Columns and labels:
Experiment in all cases: SPR, KD relative to WT C2;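 also: biacore SPR at 37 °C, anti-C2 mAbs captured via immobilised goat anti-human IgG, C2 alanine or serine surface mutants as analytes, 1:1 model fitted, double-referenced sensograms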
[1] = molecular target: T1, human C2 Y702A (human, UniProt P06681 21-752)
T1 sequence: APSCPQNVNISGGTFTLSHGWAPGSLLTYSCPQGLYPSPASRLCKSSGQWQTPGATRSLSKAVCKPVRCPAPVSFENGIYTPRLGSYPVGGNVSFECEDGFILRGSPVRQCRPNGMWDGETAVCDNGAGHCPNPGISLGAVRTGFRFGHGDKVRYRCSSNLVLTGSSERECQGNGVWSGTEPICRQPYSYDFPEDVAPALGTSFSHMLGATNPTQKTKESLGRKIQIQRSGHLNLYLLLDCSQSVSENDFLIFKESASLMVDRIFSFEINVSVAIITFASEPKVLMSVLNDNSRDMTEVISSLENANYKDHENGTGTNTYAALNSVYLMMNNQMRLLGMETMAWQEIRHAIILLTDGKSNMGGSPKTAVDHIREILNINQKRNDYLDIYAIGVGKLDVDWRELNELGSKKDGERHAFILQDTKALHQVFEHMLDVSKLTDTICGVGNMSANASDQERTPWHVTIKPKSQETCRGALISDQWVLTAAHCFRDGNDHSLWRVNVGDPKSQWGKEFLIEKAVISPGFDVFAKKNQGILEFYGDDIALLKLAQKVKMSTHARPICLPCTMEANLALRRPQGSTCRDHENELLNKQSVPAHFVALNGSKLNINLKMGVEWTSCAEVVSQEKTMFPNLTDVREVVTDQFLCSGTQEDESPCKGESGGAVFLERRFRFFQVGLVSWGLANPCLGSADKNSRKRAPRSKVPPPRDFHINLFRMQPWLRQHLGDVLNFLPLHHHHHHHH

[2] = molecular target: T2, human C2 D710A (human, UniProt P06681 21-752)
T2 sequence: T1 sequence with A682Y, D690A

[3] = molecular target: T3, human C2 D417A (human, UniProt P06681 21-752)
T3 sequence: T1 sequence with D397A, A682Y

[4] = molecular target: T4, human C2 R510A (human, UniProt P06681 21-752)
T4 sequence: T1 sequence with R490A, A682Y

B1: RF16-226 (antibody, human IgG4 S228P, lambda)
heavy: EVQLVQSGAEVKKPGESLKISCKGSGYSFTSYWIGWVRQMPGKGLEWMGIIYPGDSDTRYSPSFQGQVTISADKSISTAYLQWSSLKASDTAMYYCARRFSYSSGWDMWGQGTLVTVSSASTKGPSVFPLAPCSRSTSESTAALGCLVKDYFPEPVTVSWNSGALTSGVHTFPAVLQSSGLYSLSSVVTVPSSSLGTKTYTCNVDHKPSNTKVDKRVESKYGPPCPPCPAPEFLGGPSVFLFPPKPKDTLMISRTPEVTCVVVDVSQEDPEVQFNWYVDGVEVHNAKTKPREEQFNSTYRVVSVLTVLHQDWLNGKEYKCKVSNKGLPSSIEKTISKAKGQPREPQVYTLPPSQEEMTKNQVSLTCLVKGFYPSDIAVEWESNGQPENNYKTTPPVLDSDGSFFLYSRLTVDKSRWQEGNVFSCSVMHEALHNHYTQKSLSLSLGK
light: SYELTQPPSVSVSPGQTARITCSGDALTSKYVAWYQQKSGLAPLLVIYEDTRRPSGIPAKFSGSSSGSVATLTISGAHGDDEADYYCYSTDASGHQRVFGGGTKLTVLSQPKAAPSVTLFPPSSEELQANKATLVCLISDFYPGAVTVAWKADGSPVKAGVETTKPSKQSNNKYAASSYLSLTPEQWKSHRSYSCQVTHEGSTVEKTVAPTECS
notes: pH-dependent anti-C2 antibody from a phage display library; also called WT
Binder B1 has a Fold diff [1] of 11 fold, a Fold diff [2] of 10 fold and a Fold diff [3] of 2 fold. For the same binder, the Fold diff [4] was 11 fold.

Reference: patent US20220332804A1 (CSL INNOVATION, published 2022)
